The values below come from patent US20240102094A1 (Amgen, published 2024).

Changes are numbered by the printed parent chain.

The target in assay [1] is T1, human TREM2 R47H variant, expressed on cells (human, UniProt Q9NZC2 19-230).
T1 construct: On BMMs from TREM2R47H transgenic mice or on 2B4 NFAT:GFP reporter cells with DAP12; also called hTREM2R47H
T1 chain: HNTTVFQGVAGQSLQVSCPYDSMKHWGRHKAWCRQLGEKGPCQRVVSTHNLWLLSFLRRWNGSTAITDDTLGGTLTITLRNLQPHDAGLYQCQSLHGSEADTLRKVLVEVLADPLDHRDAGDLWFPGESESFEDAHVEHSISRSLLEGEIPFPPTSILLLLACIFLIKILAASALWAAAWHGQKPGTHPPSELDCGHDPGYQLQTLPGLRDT
Briefly: flow cytometry on bone marrow-derived macrophages from TREM2R47H mice, detection with anti-hIgG Fc-PE. The text has this: An anti-hTREM1 antibody and an isotype-matched hIgG2 control antibody were used as controls. […] Dead cells were excluded by DAPI staining.

Assay [2] addresses T2, human TREM2, common variant, expressed on cells (human, UniProt Q9NZC2 19-230).
T2 sequence: T1 chain with H29R
Briefly: cell-based or functional assay.

In assay [3] the target is T3, mTREM2 expressed with mDAP12 on HEK293 cells (mouse, UniProt Q99NH8 19-227).
T3 construct: whole, on cells
T3 sequence (looked up): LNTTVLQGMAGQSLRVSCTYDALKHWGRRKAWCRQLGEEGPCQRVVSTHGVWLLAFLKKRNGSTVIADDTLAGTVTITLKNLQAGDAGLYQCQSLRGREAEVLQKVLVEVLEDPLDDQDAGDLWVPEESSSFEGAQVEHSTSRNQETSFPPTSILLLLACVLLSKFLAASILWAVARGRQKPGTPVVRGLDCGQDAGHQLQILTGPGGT
Briefly: flow cytometry on HEK293 cells expressing mTREM2 and mDAP12, Geomean Fold (S/B) against antibody concentration. (In general: Flow cytometry measures light scatter and fluorescence of single cells or particles in a stream.)

Assay [4] addresses T4, recombinant hTREM2:GSS:Flag:6xHis (human, UniProt Q9NZC2 19-174, minimally biotinylated (0.3-0.4 biotin/mol) when immobilised on streptavidin sensors).
T4 construct: also called hTREM2-His; purified human TREM2; not shown: Flag tag
Briefly: Octet BLI; biotinylated hTREM2:GSS:Flag:6xHis on streptavidin sensors, Fab dilution series 30, 10, 3.3 nM, global 1:1 fit; Fab, not IgG; biotinylated hTREM2 on streptavidin sensors.

B1: hT2AB (fully human anti-human TREM2 agonistic monoclonal antibody, effectorless hIgG1) (antibody, V domains shown)
VH: EVQLVQSGAEVKKPGESLKISCKGSGYSFTSYWIGWVRQMPGKGLEWMGIIYPGDADARYSPSFQGQVTISADKSISTAYLQWSSLKASDTAMYFCARRRQGIFGDALDFWGQGTLVTVSS
VL: EIVMTQSPATLSVSPGERATLSCRASQSVSSNLAWFQQKPGQAPRLLIYGASTRATGIPARFSGSGSGTEFTLTISSLQPEDFAVYYCLQDNNFPPTFGQGTKVDIKR
notes: also called hT2AB IgG1; anti-human TREM2 mAb hT2AB
With B1, the binding result is recorded as “binds” in assay [1] and “no binding (tested: 5 ug/mL)” in assay [3]. For the same molecule, in assay [2], the “EC50 of pSyk induction in HEK293 cells expressing human TREM2 and DAP12 (clone G13)” value worked out at 222 pM. In addition, in assay [2], the “EC50 of pSyk induction in human monocyte-derived macrophages (hMacs)” value was found to be 166 pM.

B2: hT2AB Fab (monomeric antigen-binding fragment of hT2AB) (Fab, V domains shown)
VH: B1 VH
VL: EIVMTQSPATLSVSPGERATLSCRASQSVSSNLAWFQQKPGQAPRLLIYGASTRATGIPARFSGSGSGTEFTLTISSLQPEDFAVYYCLQDNNFPPTFGQGTKVDIK
notes: also called hT2AB Fab protein
As a reminder, the Kd is the free concentration of one partner at which half of the binding sites on the other are occupied at equilibrium, for simple one-to-one binding. In the case of B2, in assay [4], the Kd is 50 nM.
